This is an account of results in patent US20250135039A1, “INHIBITOR-RESISTANT MGMT MODIFICATIONS AND MODIFICATION OF MGMT-ENCODING NUCLEIC ACIDS” (Ensoma, Inc., priority 2022, published 2025).

B1: P140F: MGMT polypeptide with mutation P140F (protein)
chain: MDKDCEMKRTTLDSPLGKLELSGCEQGLHEIKLLGKGTSAADAVEVPAPAAVLGGPEPLMQCTAWLNAYFHQPEAIEEFPVPALHHPVFQQESFTRQVLWKLLKVVKFGEVISYQQLAALAGNPKAARAVGGAMRGNPVFILIPCHRVVCSSGAVGNYSGGLAVKEWLLAHEGHRLGKPGLGGSSGLAGAWLKGAGATSGSPPAGRN
B2: G156P: MGMT polypeptide with mutation G156P (protein)
chain: B1 chain with F140P, G156P
B3: P140R: MGMT polypeptide with mutation P140R (protein)
chain: B1 chain with F140R
B4: P140I: MGMT polypeptide with mutation P140I (protein)
chain: B1 chain with F140I
B5: G156A: MGMT polypeptide with mutation G156A (protein)
chain: B1 chain with F140P, G156A
B6: G156I: MGMT polypeptide with mutation G156I (protein)
chain: B1 chain with F140P, G156I
B7: P140Q: MGMT polypeptide with mutation P140Q (protein)
chain: B1 chain with F140Q
B8: G156V: MGMT polypeptide with mutation G156V (protein)
chain: B1 chain with F140P, G156V
B9: Y158F: MGMT polypeptide with mutation Y158F (protein)
chain: B1 chain with F140P, Y158F
B10: P140H: MGMT polypeptide with mutation P140H (protein)
chain: B1 chain with F140H

Residue numbers refer to the chain shown, from its start. Numbers in names are those of the source.

The first assay has as its system U251 human glioblastoma cell line. The experiment in a line: in vitro FM-HCR assay of MGMT activity (mPlum O^6MeG reporter plasmid). The assay is classed as cell-based. Conditions: 100 μM O^6BG; U251 cells; flow cytometry 24 h after transfection; damaged/undamaged reporter; inversely related to MGMT activity. The text has this: The present Example includes, in part, an in vitro fluorescence multiplex host cell reactivation (FM-HCR) assay in which a reporter plasmid with O^6MeG-containing oligonucleotides is used. The oligonucleotides induce transcription errors that lead to expression of fluorescent mPlum protein. Functional MGMT will repair the O^6MeG sites and reduce mPlum expression. This represents a rapid and validated assay system to assess intracellular activity of MGMT. Further description of certain such assays is found in Nagel (2014 PNAS USA 111 (18): E1823-32, which is incorporated herein by reference.
The present Example uses an in vitro FM-HCR assay in which a reporter plasmid with 0° MeG-containing oligonucleotides is used to assay MGMT activity in cells. The O^6MeG-containing oligonucleotides induce transcription errors that lead to expression of fluorescent mPlum protein. Functional MGMT will repair the O'MeG sites and reduce mPlum expression. This represents a rapid and validated assay system to assess intracellular activity of MGMT. Further description of certain such assays is found in Nagel et al., 2014 PNAS USA 111 (18): E1823-32 and Piett et al., 2021 Nat. Protoc. 16 (9): 4265-4298, each of which is incorporated herein by reference.
The in vitro FM-HCR assay was performed using the U251 human glioblastoma cell line. The cells were cultured in DMEM with 10% FBS and passaged every three days.
To express MGMT variants in the cells, plasmids encoding each MGMT variant were designed and generated by either de novo synthesis or cloning into the pTwist EF1 Alpha Puro vector at the HindII-BamHI multiple cloning site. The pTwist EF1 Alpha Puro plasmid vector drives expression of the MGMT transcript from a human EF1-alpha promoter including intron 1 and an SV40 polyadenylation signal. Plasmids encoding the MGMT variants were purified using standard molecular biology techniques from E. coli with low endotoxins. Plasmids encoding wild-type MGMT or O^6BG-resistant MGMT^P140K were also designed and generated for use as controls.
To perform the in vitro FM-HCR assay, U251 cells were seeded in 12-well plates at a density of 50,000 cells per well in 1 mL culture media. The following day, the media was changed to 1 mL of culture media containing O^6BG (100 μM O^6BG and 0.1% DMSO final) or 0.1% DMSO; and the cells were transfected with 1,000 ng of a plasmid cocktail using Lipofectamine 3000 (ThermoFisher Scientific) at 1.8 μL Lipofectamine 3000 Reagent and 2 μL P3000 reagent in Opti-MEM medium (ThermoFisher Scientific). […] For the “undamaged” condition, the plasmid cocktail replaced the mPlum O^6MeG reporter plasmid with 100 ng of a plasmid expressing mPlum. The plasmid encoding BFP was used as an internal transfection control. For transfections where no MGMT encoding plasmid is used (no pMGMT), 250 ng of additional carrier plasmid was used to maintain a total DNA amount of 1,000 ng in each transfection. Four hours after transfection, the transfection medium was changed.
All transfected cells were analyzed by flow cytometry at 24-hours after transfection. Data was analyzed as previously described in Nagel et al., 2014 PNAS USA 111 (18): E1823-32 and Piett et al., 2021 Nat. Protoc. 16 (9): 4265-4298. For each condition, normalized reporter expression was determined by taking the product of the mPlum-positive cell count and the mean mPlum fluorescence intensity in mPlum-positive cells and dividing it by the product of the BFP-positive cell count and the mean BFP fluorescence intensity in BFP-positive cells. Next, for each MGMT variant, the percent reporter expression was determined by taking the normalized reporter expression in the “damaged” condition and dividing it by the normalized reporter expression in the “undamaged” condition, and then multiplying by 100 to obtain a percent value. […]
(Flow cytometry measures light scatter and fluorescence of single cells or particles in a stream.)
As for B1, the “Reporter expression (%) mean, O^6BG” value is given as 76.8%.
Consider B2, for which the “Reporter expression (%) mean, O^6BG” value is listed as 47.3%.
Same read-out and setting: the result for B3 reads 38.3%; that for B4, 31.0%; that for B5, 79.0%.
The same measure, in the same setting: the result for B6 reads 54.0%.
Still for that read-out and setting: under B7 stands 49.0%.
On to B8, for which the “Reporter expression (%) mean, O^6BG” value came to 55.0%.
Turning to B9, the “Reporter expression (%) mean, O^6BG” value is reported as 61.3%.
Still for that read-out and setting: under B10 stands 29.3%.

The assay is the same for the next values; noted with them: 0.1% DMSO; U251 cells; flow cytometry 24 h after transfection; damaged/undamaged reporter; inversely related to MGMT activity.
Turning to B1, the “Reporter expression (%) mean, DMSO” value is reported as 25.3%.
Same read-out and setting: under B2 stands 41.0%.
The same measure, in the same setting: under B3 stands 25.3%.
Same read-out and setting: under B4 stands 14.7%; under B5, 32.3%.
Take B6: the “Reporter expression (%) mean, DMSO” value came to 42.0%.
In the case of B7, the “Reporter expression (%) mean, DMSO” value was 15.3%.
On to B8, for which the “Reporter expression (%) mean, DMSO” value was found to be 36.8%.
As for B9, the “Reporter expression (%) mean, DMSO” value was 12.3%.
On to B10, for which the “Reporter expression (%) mean, DMSO” value is 15.7%.

Still in this assay, the particulars now being: DMSO condition; determined from percent reporter expression.
With B1, the “MGMT activity (a.u.) DMSO” value is given as 3.96 a.u.
Same read-out and setting: under B2 stands 2.44 a.u.
The same measure, in the same setting: the result for B3 reads 3.95 a.u.
Same read-out and setting: under B4 stands 6.82 a.u.
In the case of B5, the “MGMT activity (a.u.) DMSO” value was 3.10 a.u.
Still for that read-out and setting: the result for B6 reads 2.38 a.u; that for B7, 6.52 a.u.
The same measure, in the same setting: the result for B8 reads 2.72 a.u; that for B9, 8.11 a.u.
Same read-out and setting: the result for B10 reads 6.38 a.u.

The assay is the same for the next values; noted with them: DMSO condition; relative to wild-type MGMT in same condition.
Regarding B1, the “MGMT activity (% of WT) DMSO” value is 73.3 % of WT.
In the case of B2, the “MGMT activity (% of WT) DMSO” value is listed as 45.1 % of WT.
The same measure, in the same setting: the result for B3 reads 73.0 % of WT.
On to B4, for which the “MGMT activity (% of WT) DMSO” value was 126.1 % of WT.
Still for that read-out and setting: under B5 stands 57.4 % of WT; under B6, 44.0 % of WT.
Same read-out and setting: the result for B7 reads 120.7 % of WT.
On the same count and under the same terms, the result for B8 reads 50.3 % of WT; that for B9, 150.0 % of WT; that for B10, 118.1 % of WT.

Still in this assay, the particulars now being: MGMT activity (a.u.) in O^6BG divided by DMSO x 100; higher values indicate resistance.
Take B1: the “Relative MGMT activity (%)” value is listed as 32.9%.
Same read-out and setting: the result for B2 reads 86.6%; that for B3, 66.1%; that for B4, 47.3%.
As to B5, the “Relative MGMT activity (%)” value worked out at 40.8%.
On the same count and under the same terms, under B6 stands 77.8%; under B7, 31.3%; under B8, 66.8%.
On the same count and under the same terms, under B9 stands 20.1%; under B10, 53.4%.

The assay is the same for the next values; noted with them: O^6BG condition; determined from percent reporter expression.
For B1, the “MGMT activity (a.u.) O^6BG” value is reported as 1.30 a.u.
Still for that read-out and setting: the result for B2 reads 2.11 a.u; that for B3, 2.61 a.u; that for B4, 3.23 a.u.
Turning to B5, the “MGMT activity (a.u.) O^6BG” value came to 1.27 a.u.
In the case of B6, the “MGMT activity (a.u.) O^6BG” value came to 1.85 a.u.
The same measure, in the same setting: under B7 stands 2.04 a.u.
Same read-out and setting: under B8 stands 1.82 a.u.
On the same count and under the same terms, under B9 stands 1.63 a.u; under B10, 3.41 a.u.

Still in this assay, the particulars now being: O^6BG condition; relative to wild-type MGMT in same condition.
Take B1: the “MGMT activity (% of WT) O^6BG” value is 91.2 % of WT.
On the same count and under the same terms, under B2 stands 147.9 % of WT; under B3, 182.6 % of WT; under B4, 225.8 % of WT.
On the same count and under the same terms, under B5 stands 88.6 % of WT; under B6, 129.6 % of WT; under B7, 142.9 % of WT.
As to B8, the “MGMT activity (% of WT) O^6BG” value is 127.3 % of WT.
Take B9: the “MGMT activity (% of WT) O^6BG” value is recorded as 114.1 % of WT.
Take B10: the “MGMT activity (% of WT) O^6BG” value is 238.6 % of WT.

The same assay, now with this note: lower values indicate resistance to O^6BG.
In the case of B1, the “Ratio percent reporter expression (O^6BG/DMSO)” value came to 3.04.
With B2, the “Ratio percent reporter expression (O^6BG/DMSO)” value worked out at 1.15.
For B3, the “Ratio percent reporter expression (O^6BG/DMSO)” value stood at 1.51.
Regarding B4, the “Ratio percent reporter expression (O^6BG/DMSO)” value stood at 2.11.
The same measure, in the same setting: the result for B5 reads 2.45; that for B6, 1.29.
As for B7, the “Ratio percent reporter expression (O^6BG/DMSO)” value is recorded as 3.20.
Same read-out and setting: under B8 stands 1.50.
The same measure, in the same setting: the result for B9 reads 4.97; that for B10, 1.87.

The assay is the same for the next values; noted with them: percentage difference in relative MGMT activity between variant and wild-type MGMT.
On to B1, for which the “O^6BG resistance relative to WT (%)” value is 24.5%.
Still for that read-out and setting: the result for B2 reads 227.8%.
For the molecule B3, the “O^6BG resistance relative to WT (%)” value stood at 150.1%.
With B4, the “O^6BG resistance relative to WT (%)” value came out at 79.0%.
On the same count and under the same terms, the result for B5 reads 54.5%; that for B6, 194.3%; that for B7, 18.4%.
For the molecule B8, the “O^6BG resistance relative to WT (%)” value was 152.8%.
The same measure, in the same setting: the result for B9 reads −23.9%; that for B10, 102.1%.
